Source: patent publication US20200017598A1

Biological target: mouse C5aR (mouse) (UniProt P30993)
Experiment: cell-based or functional assay

Chain of UniProt P30993 (P30993 other isoform, or with tags, fused parts or gaps): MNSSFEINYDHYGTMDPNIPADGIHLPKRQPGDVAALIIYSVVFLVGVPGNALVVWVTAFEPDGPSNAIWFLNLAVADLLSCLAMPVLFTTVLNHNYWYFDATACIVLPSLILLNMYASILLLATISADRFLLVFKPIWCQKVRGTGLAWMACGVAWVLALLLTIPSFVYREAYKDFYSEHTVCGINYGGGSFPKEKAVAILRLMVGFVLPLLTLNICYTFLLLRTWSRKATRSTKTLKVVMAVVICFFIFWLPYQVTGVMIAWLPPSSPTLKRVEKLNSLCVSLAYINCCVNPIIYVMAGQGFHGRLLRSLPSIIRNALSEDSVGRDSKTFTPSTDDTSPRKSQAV

inhibition of C5a-induced CD11b up-regulation on neutrophils (live Ly6G+ cells) in mouse whole blood stimulated with recombinant mouse C5a, flow cytometry: 0.6 µg/mL
Substance: Anti-mouse C5aR mAb m20/70 (20/70 variable regions on mouse kappa and mouse IgG2a.1 constant regions) (from UniProt P01863 1-330) (antibody)
